Here are results for 80 sequences from the supplement of paper PMC10724198.

± gives the standard deviation of the averaged measurements.
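Further: PSI is a weighted mean of sequencing reads over stability bins, variants kept only with over 10 reads, mCherry proximal and sfGFP distal, peptide attached via GGGS linker.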

The subject of this data set is Saccharomyces cerevisiae. The data set can be described thus: protein stability index of tFT-peptide fusion (C-terminal peptide) (PSI (0-1 scale)); higher = more stable (slower turnover). The conditions noted are these: genetic background: wild type; temperature: 30 C.
TGRGSMSNVRVK showed a protein stability index of 0.706 ± 0.06.

TGTATGTEGANY gave a protein stability index of 0.698 ± 0.022.

In turn, TGTEKFTMQFKF returned a protein stability index of 0.673 ± 0.042.

The sequence TGTVYGGTRRGQ had a protein stability index of 0.698 ± 0.075.

Regarding TGVCKGMRWRGV, the protein stability index is 0.683 ± 0.045.

For THCWQVLPCGLI, the protein stability index is 0.723 ± 0.0089.

THRAGLGANKGL yielded a protein stability index of 0.696 ± 0.029.

Sequence THSLRIRESNNT yielded a protein stability index of 0.674 ± 0.014.

The sequence TKCSPLASRFSC registered a protein stability index of 0.707 ± 0.016.

Consider TKKKKKKNKKQE, for which the protein stability index is 0.683 ± 0.012.

TKNTQNNGKDKK registered a protein stability index of 0.734 ± 0.059.

Turning to TKQLKGEQERDG, the protein stability index was found to be 0.648 ± 0.031.

In turn, TKRRRKRRGAKK displayed a protein stability index of 0.672 ± 0.014.

TKVCWNVDYNVL returned a protein stability index of 0.697 ± 0.012.

Consider TKWAISRLHNSA, for which the protein stability index stood at 0.64 ± 0.012.

TKYIGDGCVCSC had a protein stability index of 0.645 ± 0.018.

Take TLCTKCNVFSCC: the protein stability index worked out at 0.682 ± 0.062.

For the sequence TLFVAWTDCMSY, the protein stability index turned out to be 0.6591 ± 0.0061.

For TLIEWSAKGCRR, the protein stability index was found to be 0.693 ± 0.047.

Consider TLKGERHKKNKR, for which the protein stability index worked out at 0.623 ± 0.035.

For TLRKTTRHRRNA, the protein stability index was 0.737 ± 0.069.

As to TLSLPPLHPPPH, the protein stability index was 0.699 ± 0.0063.

TLSPPPALASPL showed a protein stability index of 0.71 ± 0.037.

Take TLTTVLSPHSHR: the protein stability index was 0.716 ± 0.0073.

In turn, TLVALGFIYASG came in with a protein stability index of 0.572 ± 0.0048.

TLYKSEQIAFFL had a protein stability index of 0.644 ± 0.047.

In turn, TMLIGTAQAVNN returned a protein stability index of 0.604 ± 0.026.

The sequence TNALVGEWVGLG returned a protein stability index of 0.795 ± 0.11.

The sequence TNANKKNGRGNT yielded a protein stability index of 0.683 ± 0.041.

For TNKRKNIRTKQR, the protein stability index is 0.638 ± 0.037.

As for TPASAGLACILL, the protein stability index is 0.672 ± 0.013.

For TPGGRTLATALR, the protein stability index was 0.676 ± 0.018.

TPHAPTATPRDN had a protein stability index of 0.727 ± 0.076.

Sequence TPLAPASPPAAR registered a protein stability index of 0.717 ± 0.056.

The sequence TPLPPLPPHPPS showed a protein stability index of 0.727 ± 0.0087.

Regarding TPNLQPLPRNLD, the protein stability index is 0.765 ± 0.037.

For TPPCACTPPRAP, the protein stability index came out at 0.686 ± 0.081.

Consider TPQSLRDAHGSC, for which the protein stability index worked out at 0.662 ± 0.056.

On to TPRASLSATSRS, for which the protein stability index amounted to 0.719 ± 0.016.

For TPRTNATAMCTP, the protein stability index came out at 0.72 ± 0.038.

On to TPSYSPPSRHDP, for which the protein stability index was 0.634 ± 0.093.

Sequence TPTRRIIPHTHP yielded a protein stability index of 0.685 ± 0.086.

The sequence TQARDTIPGAKV yielded a protein stability index of 0.678 ± 0.02.

The sequence TQEKKGKIRGGI showed a protein stability index of 0.685 ± 0.0085.

For TQSPANIIQRKT, the protein stability index amounted to 0.672 ± 0.024.

Take TQTLPPPLPPLL: the protein stability index came out at 0.675 ± 0.02.

Consider TQWRSRRHLKPQ, for which the protein stability index came out at 0.72 ± 0.032.

TQYINTAHKELK yielded a protein stability index of 0.6677 ± 0.00083.

Sequence TQYTDNQTPITK showed a protein stability index of 0.6673 ± 0.0027.

Regarding TRAKVQSRGSLS, the protein stability index was determined as 0.708 ± 0.039.

TRCKRNETCTSG registered a protein stability index of 0.669 ± 0.046.

In turn, TRECGRLRQAET showed a protein stability index of 0.723 ± 0.067.

Turning to TRHPGGERIPTY, the protein stability index stood at 0.743 ± 0.12.

TRIRLQKNVITL returned a protein stability index of 0.683 ± 0.014.

Sequence TRLGWSWGFAHR registered a protein stability index of 0.719 ± 0.11.

In turn, TRREQYSSSNLV had a protein stability index of 0.674 ± 0.04.

Take TRRKKKKNTGTK: the protein stability index turned out to be 0.71 ± 0.022.

In turn, TRRLEFPEPPMS registered a protein stability index of 0.708 ± 0.061.

The sequence TRSGGNGYERVC displayed a protein stability index of 0.667 ± 0.03.

In turn, TSCFIWGCACCR yielded a protein stability index of 0.656 ± 0.058.

Consider TSEIGKEINYRK, for which the protein stability index was found to be 0.66 ± 0.017.

On to TSFLRSPPPPRL, for which the protein stability index was found to be 0.763 ± 0.012.

For the sequence TSGRTLVNDKCT, the protein stability index turned out to be 0.716 ± 0.012.

Regarding TSIFRIICLTDR, the protein stability index was determined as 0.642 ± 0.022.

Turning to TSKPGLQIPRRE, the protein stability index was determined as 0.747 ± 0.047.

The sequence TSKTLHKTNNIK came in with a protein stability index of 0.698 ± 0.028.

As for TSPLSPAPPPPR, the protein stability index came out at 0.641 ± 0.083.

In the case of TSPPPGTHTLQP, the protein stability index amounted to 0.626 ± 0.023.

With TSQASIRDLTNK, the protein stability index is 0.579 ± 0.016.

In turn, TTPHTSFTILHP had a protein stability index of 0.696 ± 0.087.

The sequence TTPRAILPLSSI registered a protein stability index of 0.67 ± 0.043.

TTSRTRVAHPPI yielded a protein stability index of 0.622 ± 0.071.

With TVGSVAREGPFW, the protein stability index amounted to 0.696 ± 0.025.

Turning to TVLTDKKGRVRS, the protein stability index came out at 0.71 ± 0.0093.

The sequence TVMSDCQTDQAS registered a protein stability index of 0.657 ± 0.065.

On to TVNHKHALQFAT, for which the protein stability index is 0.681 ± 0.091.

In the case of TVRLAPCPLSDT, the protein stability index was 0.744 ± 0.075.

As for TVVSFMFCPSLT, the protein stability index stood at 0.667 ± 0.061.

The sequence TWGLGVFSIMDC registered a protein stability index of 0.633 ± 0.052.

In turn, TWPGRAGGRGAT registered a protein stability index of 0.721 ± 0.1.
